Patent US9168297B2, “Regulation of skin pigmentation by neuregulin-1 (NRG-1)” (The United States of America, as Represented by the …, priority 2010, dated 2015)

Key:
ERBB2 = ERBB2 protein level by western blotting in melanocytes; assay type: cell-based, human
Protocol: (§1) FIGS. 7A and 7B are digital images illustrating expression of ERBBs after NRG-1 treatment. FIG. 7A) HEM-LP and HEM-DP melanocytes were treated with or without NRG-1 (50 ng/ml) for 5 days, and levels of ERBB2, ERBB3 or ERBB4 were detected by western blotting. Results shown are representative of three studies. FIG. 7B) Expression of ERBB2 was examined in HEM-LP and in HEM-DP melanocytes after 1 or 9 days or treatment with NRG-1 compared to vehicle-treated controls; the results are representative of two independent studies.
FIGS. 8A and 8B are digital images illustrating the mechanism of ERBB2 abrogation after NRG-1 treatment. FIG. 8A) ERBB2 mRNA levels in HEM-LP and in HEM-DP melanocytes were detected by RT-PCR after treatment with or without NRG-1 (50 ng/ml) for 1 day. FIG. 8B) MG132 (120 nM) was added to the melanocyte culture medium to inhibit proteasomal degradation during treatment of HEM-LP and HEM-DP melanocytes with or without NRG-1 (50 ng/ml). Proteins were extracted for each sample, and ERBB2 levels were detected by western blotting. Results are representative of three studies.
Fibroblast cultures in 100-mm dishes were solubilized in appropriate volumes of M-PER mammalian protein extraction reagent (Pierce Biotechnology, Rockford, Ill.) containing a Protease Inhibitor mixture (Roche, Mannheim, Germany) and phosphatase inhibitors. The protein concentration of each extract was measured using a BCA protein assay kit (Pierce, Rockford, Ill.). Cell extracts (20 μg) were separated on 8-16% gradient SDS polyacrylamide gels (Invitrogen, Carlsbad, Calif.), after which proteins were transferred to PVDF membranes (Invitrogen, Carlsbad, Calif.). Membranes were blocked for 1 hour in PBS or Tris buffered saline (TBS) containing 0.1% Tween 20 and 5% (w/v) nonfat dry milk powder and were incubated overnight at 4° C. with the primary antibody in PBS containing 0.1% Tween 20 and 2.5% (w/v) nonfat dry milk powder or in 0.1% Tween-TBS with 5% BSA, depending on the antibody. The following primary antibodies were used: anti-human DKK-1 (0.2 μg/ml), anti-human DKK-3 (0.1 μg/ml), anti-human bFGF (0.1 μg/ml), anti-human SCF (0.1 μg/ml), anti-human mouse monoclonal ERBB3 (1 μg/ml) and anti-human mouse monoclonal ERBB4 (2 μg/ml) antibodies from R&D Systems, neuregulin-1α/β1/2 (C-20) (1:500) and GAPDH (FL-335) (1:10,000) antibodies from Santa Cruz Biotechnology, ERBB2 rabbit monoclonal (1:1000) and phospho-Akt (Ser473) (1:1000) antibodies from Cell Signaling Technology. Membranes were then incubated with an HRP-linked anti-rabbit antibody (GE Healthcare) at 1:10,000 dilution or with an anti-goat antibody (DAKO) at 1:2,000 dilution at room temperature for 1 hour. Antigen-antibody complexes were detected using an ECL-plus Western blotting detection system (GE Healthcare). […]

ERBB4 = ERBB4 protein level by western blotting in melanocytes; assay type: cell-based, human; conditions: HEM-LP and HEM-DP, NRG-1 50 ng/ml, 5 days
Protocol: as §1
Fibroblast cultures in 100-mm dishes were solubilized in appropriate volumes of M-PER mammalian protein extraction reagent (Pierce Biotechnology, Rockford, Ill.) containing a Protease Inhibitor mixture (Roche, Mannheim, Germany) and phosphatase inhibitors. The protein concentration of each extract was measured using a BCA protein assay kit (Pierce, Rockford, Ill.). Cell extracts (20 μg) were separated on 8-16% gradient SDS polyacrylamide gels (Invitrogen, Carlsbad, Calif.), after which proteins were transferred to PVDF membranes (Invitrogen, Carlsbad, Calif.). […] Antigen-antibody complexes were detected using an ECL-plus Western blotting detection system (GE Healthcare). […]

B1: NRG-1: commercially available recombinant human neuregulin-1 (rhNRG-1-β1, R&D Systems), SEQ ID NO: 11 (protein)
chain: TSHLVKCAEKEKTFCVNGGECFMVKDLSNPSRYLCKCPNEFTGDRCQNYVMASFYKHLGIEFMEAEELYQK
Expression of ERBB2 (ERBB2; HEM-LP and HEM-DP, NRG-1 50 ng/ml, 5 days): almost completely undetectable
Level of ERBB2 (ERBB2; both types of melanocytes, NRG-1, 1 day): significantly decrease
ERBB2 expression (ERBB2; both types of melanocytes, NRG-1, day 3, lasted until day 9): completely disappeared
Levels of ERBB4 expression (ERBB4): did not change
